According to publication PMC4498709:
pKd: −log10 of the molar value. Values belong to the substance of their own block, whether it stands above or below them.

How the values were obtained:
[1] = tested on: ctMex67 deltaN (with Mtr2);ctMtr2 (Chaetomium thermophilum;Chaetomium thermophilum); assay: fluorescence anisotropy; conditions: 20 mM Tris-HCl pH 8.0, 50 mM NaCl, 10 nM DY-547-labelled RNA, serially diluted protein, temperature not stated
[2] = target: Chaetomium thermophilum Mex67 LRR-NTF2L (ctMex67^LRR-NTF2L; residues 180-556) (Chaetomium thermophilum); assay: SEC-MALS; ctMex67^LRR-NTF2L alone; single peak; dimer
[3] = tested on: ctMex67 LRR-NTF2L (RRM deletion);ctMtr2 (Chaetomium thermophilum;Chaetomium thermophilum); assay: fluorescence anisotropy; conditions: 20 mM Tris-HCl pH 8.0, 50 mM NaCl, 10 nM DY-547-labelled RNA, serially diluted protein; temperature not stated
[4] = tested on: ctMex67 RRM-LRR (NTF2L-Mtr2 deletion) (Chaetomium thermophilum); assay: fluorescence anisotropy; conditions: 20 mM Tris-HCl pH 8.0, 50 mM NaCl, 10 nM DY-547-labelled RNA, serially diluted protein; temperature not stated
[5] = tested on: ctMex67 deltaUBA (deltaN deltaUBA);ctMtr2 (Chaetomium thermophilum;Chaetomium thermophilum); assay: fluorescence anisotropy; conditions: 20 mM Tris-HCl pH 8.0, 50 mM NaCl, 10 nM DY-547-labelled RNA, serially diluted protein; temperature not stated

Substance: UUUUUUUUUUUUUUU [polyU15]
- Kd ([1]; printed '930 and 6.0 µM, respectively', 930 read as nM): 930 nM

- stoichiometry N [2]: 2
Substance: Chaetomium thermophilum Mex67 LRR-NTF2L (ctMex67^LRR-NTF2L; residues 180-556) (domain or fragment)

Substance: GGGGGGGGGGGGGGG [polyG15]
- pKd [1]: 6.51

Substance: CCCCCCCCCCCCCCC [polyC15]
- pKd [1]: 5.22

Substance: AAAAAAAAAAAAAAA [polyA15]
- pKd [3]: 5.17
- pKd [4]: 5.26
- pKd [1]: 6.46
- pKd [5]: 6.43
